The text below walks through data of publication PMC10117725, “From an Hsp90 - binding protein to a peptide drug” (microLife, 2022).

For this test, the target named is T1, recombinant Hsp90α (human, UniProt P07900 1-732).
T1 construct: source: bought: Abcam (recombinant)
Briefly: far-Western, overlay or dot blot. The following applies: both partners purified.

B1: L16 (peptide)
peptide: NYKIEMKNNKIILLD
notes: source: synthetic peptide (Apeptide, Shanghai; purity >95%)
For B1, the binding result was “binds”.

B2: L21 (peptide)
peptide: ENFKFFGQYANLKELRK
notes: as for B1
Take B2: the binding result is recorded as “binds”.

B3: L26 (peptide)
peptide: DEIVKELRSRYNISTEKSPILKMHIDGDLKGSSVGYRKLEIDFSKRENSKLSVIEFLSYKPAKK
notes: as for B1
Take B3: the binding result was “binds”.

B4: L15 (peptide)
peptide: TAKGHYFVTTFYRNG
notes: as for B1
For B4, the binding result is “binds”.

B5: L13 (peptide)
peptide: GHYFVTTFY
notes: as for B1
For B5, the binding result is reported as “binds”.

B6: L10 (peptide)
peptide: NTRTAKGHYFVTTFYRNG
notes: as for B1
Turning to B6, the binding result is “binds”.
